The values that follow come from patent publication US20100004432, “APTAMER AGAINST MIDKINE AND USE THEREOF” (RIBOMIC INC., published 2010).

Series [1] deals with T1, midkine (full-length) (Homo sapiens, UniProt P21741 P21741:23-143).
T1 sequence: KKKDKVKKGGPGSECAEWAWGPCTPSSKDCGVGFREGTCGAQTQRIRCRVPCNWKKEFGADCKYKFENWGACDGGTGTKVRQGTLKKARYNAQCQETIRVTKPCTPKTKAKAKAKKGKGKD
The experiment in a line: cell_activity. To be noted: 500 nM; control.

For series [2], the target named is T1, midkine (full-length). The experiment in a line: cell_activity; UMR106 migration inhibition, 500 nM RNA. To be noted: tags: expressed in yeast. The procedure: 30 μL of 1.5 μM midkine was applied to the outer surface of the membrane of Chemotaxicell (membrane pore diameter 8 μm, manufactured by Kurabo) to immobilize the midkine to the outer surface of the membrane. The midkine-immobilized Chemotaxicell was placed on a 24-well culture plate containing 500 μL of a medium (supplemented with 0.3% bovine serum albumin, Dulbecco's Modified Eagle's medium) supplemented with each RNA aptamer added thereto at 100 nM. 200 μL of UMR106 cells were placed in the inner layer of the Chemotaxicell chamber at a density of 1×10⁶ cells/mL, and cultured at 37° C. for 4 hours. The cells remaining in the inner layer of the Chemotaxicell chamber were removed, and the cells that had infiltrated and adhered to the midkine-applied surface were fixed with methanol. The Chemotaxicell chamber was immersed in a 1% aqueous solution of Crystal Violet for 30 minutes to stain the cells. After the Chemotaxicell chamber was washed with distilled water and dried, the pigment was extracted with a mixed solution of 200 μL of 1% SDS and 1% triton X100. 150 μL of the extract was transferred to a 96-well microplate, and its absorbance at 590 nm was determined.
The aptamer shown by SEQ ID NO:5 is 77 nucleotides long, having the 2′-position of the ribose of the pyrimidine nucleotide fluoro-substituted. To enable the chemical synthesis, to reduce the toxicity, and to improve the stability in the blood, miniaturization and stabilization of this aptamer were performed. The operations of miniaturization and stabilization were performed on the basis of the secondary structure estimated by the MFOLD program, and the activity was evaluated by a cell migration inhibition experiment. The RNA concentration in the cell migration inhibition experiment was 100 nM or 500 nM. Since some errors occur in experimental results depending on cell condition, a previously assayed sample was included as a positive control in each measurement.

Series [3] concerns the target T1, midkine (full-length). The series is described as above. The following applies: tags: expressed in yeast. The source holds these as a separate data set.

As to tRNA, the activity (% of SEQ 40 inhibition) with midkine (full-length) [1] stood at 28.
With GGGAAGGAGGAAGUGCACAGGGGUUGGUGUCGGGUGCAC (ssRNA, as 61-4 but a(M)g(M)gg(M)g(M) in place of aggg(M)g(M)) [SEQ ID NO:61-8], the activity with midkine (full-length) [2] was 54 % of SEQ ID NO:40.
The same measure, in the same setting: with GGGAAGGAGGAAGUGCACAGGGGUUGGUGUCGGGUGCAC (ssRNA, 5' PEG2000; as 61-4 but a(M)gg(M)g(M)g(M) and ggg(M)u(F)) [SEQ ID NO:61-9] the figure was 39 % of SEQ ID NO:40.

B1: SEQ ID NO:45-1 (ssRNA)
RNA: GGGAGAGGAGAAGAGGAAGUGCACAGGGGUUGGUGUCGGGUGCAC
modifications: 5' PEG2000-C12; 3' idT; 2'-F pyrimidines; 2'-OMe all A in 5' single-stranded part
For the molecule B1, in the series with midkine (full-length) [3], the activity is 100 % of SEQ ID NO:40.

B2: SEQ ID NO:45-3 (ssRNA)
RNA: B1 RNA
modifications: 2'-F pyrimidines; 2'-OMe all A in 5' single-stranded part and A, G in internal loop: a(M)g(M)ggg and c(F)g(M)g(M)g
As to B2, the activity with midkine (full-length) [3] is 56 % of SEQ ID NO:40.

B3: SEQ ID NO:45-4 (ssRNA)
RNA: B1 RNA
modifications: 2'-F pyrimidines; 2'-OMe all A in 5' single-stranded part and A, G in end stem: gu(F)g(M)c(F)a(M)c(F) and u(F)g(M)c(F)a(M)c(F)
Turning to B3, the activity in the series with midkine (full-length) [3] was 100 % of SEQ ID NO:40.

B4: SEQ ID NO:45-2 (ssRNA)
RNA: B1 RNA
modifications: 2'-F pyrimidines; 2'-OMe all A in 5' single-stranded part and G in loop: agggg(M)u(F)u(F)g(M)g(M)u(F)g(M)u(F)c(F)
Consider B4, for which the activity in the series with midkine (full-length) [3] was 100 % of SEQ ID NO:40.
